Reference: a protein production outcome set (Wang et al. 2014)

Experiment: label from the status in PepcDB records

Sequence	protein production
MKKRFCFVIITLLLIFILGSCNKVTSIRRLQELEEGVSNPNTEAELKDAIRKYEKRVDDIMIAEERIGIWYKILGSRYMDQKMYKKALKAFQSALEYYPENQNLFYQAGLAASLTAKNSLDFELTGTDIEKKRYFDLAVSAYKRALEIDPKHAKAVYALSVLYIFELNRPTEAIPILEKITEWEKKPIDHLFLLGAAYYMTGENEKAIAVYERIIEISSSAEKKAKAESNIREIRSSGGR	failed
MNLIWFLIIGGLAGWLAGLIMKGKGFGVLANIGIGIVGSFIGGFLFGLLQLSAHGAIGRLVTATVGAVLLLAIVNKIKKG	failed
DRNSYSKTDYDATFMRMKEDHMKNGQLKPGYNLQIATNSQFVLSYNVYQNPTDTRTMIPFLNSIQETYGHLPEYIVADAGYGSESNYKAIIDDFNRTPLITYGMFIKDKTKKYKSDIFNTQNWNYDEIN	failed
MISNNTRRVYRISFSFFEQYCLEHNLQSLPADPRSIISFIGHQKELLQASTGMQLSKQTLTTRIAAIRFYHIQAGFPTPTEHPQVIRVMRGLSRNHHRLVQDYDQQPLEHHHHHH	failed
MTFLIPAYNEEKSIGPLIDRIKMLCPDSEIIVVDNNSSDRTSEIATSRGVRVIFEGKQGKANAMVAAFRNTRTEYAVMMDADLTYLPDDSRVLVEVLKAEGADVVLGSRLNGEKEDGAISRINTVGNHILSFTASILYSPVSDVCTGHWAFNRRAIRHILEEGLNYSGFELEAEMFSKLARAGLKIVEVPITYRKRSDEPKLSSFTDGFKIFRTLVLERLRLEHHHHHH	failed
NQLLGMHQIEKEMTQYFGIQRCIVVAGDSDIQKKVLSDFGDVLTNTLNLLLPNGENTIAVMGGTTMAMVAENMGSLETEKRHNLFVPARGGIGEAVSVQANSISAVMANKTGGNYRALYVPEQLSRETYNSLLQEPSIQEVLTLISHANCVVHSIGRALHMAARRKMSDDEMVMLKQKNAVAESFGYFFDEEGKVVYKIPRIGLQLKNLQEIPYVVAIAGGKTKAKAIRAYMKNAPKQTWLITDEAAANEILK	not failed
MMNASSISSRFKDLFVTPSIVFDFDGTLAIGHGPVLAYALCVAPEGSKDFLERVRRELRRYDDGQSIYRDGYDIVAKLASELGIDDGTMSVAYGESRKLLGSDLAPVEHVRGIKDILSSLKGHARLVLATNAPENGVHDLLRQWGVADLFDQLHFVVGKPAGLISIISDLQLDGPVLAVGDIYEFDLSPAAQLGADTALVGATATISEAKVSMRGDSIADLPLLAWVSSRVSSS	failed
MTIAVTGSIATDHLMRFPGRFSEQLLPEHLHKVSLSFLVDDLVMHRGGVAGNMAFAIGVLGGEVALVGAAGADFADYRDWLKARGVNCDHVLISETAHTARFTCTTDVDMAQIASFYPGAMSEARNIKLADVVSAIGKPELVIIGANDPEAMFLHTEECRKLGLAFAADPSQQLARLSGEEIRRLVNGAAYLFTNDYEWDLLLSKTGWSEADVMAQIDLRVTTLGPKGVDLVEPDGTTIHVGVVPETSQTDPTGVGDAFRAGFLTGRSAGLGLERSAQLGSLVAVLVLESTGTQEWQWDYEAAASRLAGAYGEHAAAEIVAVLA	not failed
SAASQAGSNYPRCWNCGGPWGPGREDRFFCPQCRALQAPDPTRDYFSLMDCNRSFRVDTAKLQHRYQQLQRLVHPDFFSQRSQTEKDFSEKHSTLVNDAYKTLLAPLSRGLYLLKLHGIEIPERTDYEMDRQFLIEIMEINEKLAEAESEAAMKEIESIVKAKQKEFTDNVSSAFEQDDFEEAKEILTKMRYFSNIEEKIKLKKIPL	not failed
MKIGRYEVCGLLGRGGMGVVYKVRQPVTGRVAALKLLKPADILVDLAGMDALREGFLHEATVMASLDHPHVAAVWDVDEAGGLPFFVMEYYCLNLGLLMGESYRVEAPTRRLPLERAVRYARQTLEALRRMHHEGIVHRDVKPFNIMVTGDDAVKLIDFGLSRLRGETRLSPRGVKVGSPYYAPPEQESAPDAVDARADLYPVGVMLFRMLTGVLPTDEERMKDGRIPRASALSDELDEGWDAFFDTAMAADPARRFPDAASMLAALARCEAAWRKQVEATCRLIPEQAAGPGDASDMRHDAGHESVQAGQTDETGQAGQAGQAGQAVTCEGAPAASGGVRCRPVKVGVHEARATFALDALWRPASAARQGLEARDDGTVSHAATGLQWETGGCDFPLTRDEAEAYVEARNALRFAGHDDWRLPTVDELLTLVDAGVTVGDPCVASVFAPLPDPLWTSDRKSYMASWFVSAAMGFVGWQDDTCRFGVRLVRGGSARCRE	failed
MSLSGVSHVSLTVRDLDISCRWYTEILDWKELVRGRGDTTSFAHGVLPGGLSIVLREHDGGGTDLFDETRPGLDHLSFSVESMTDLDVLEERLAKAGAAFTPTQELPFGWILAFRDADNIALEAMLGREGHHHHHH	not failed
